Test [1] concerns the target T1, hen egg-white lysozyme (hen (egg-white), UniProt P00698 19-147).
Test [2] addresses T1, hen egg-white lysozyme. As to the kind of experiment: SPR.

T1 sequence (P00698 19-147): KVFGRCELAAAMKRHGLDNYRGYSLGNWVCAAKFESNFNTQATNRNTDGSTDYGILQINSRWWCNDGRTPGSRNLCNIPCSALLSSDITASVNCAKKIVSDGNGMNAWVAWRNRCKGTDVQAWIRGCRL

B1: OBody AM1L10 (designed binder)
chain: AMGSVYPKKTHWTAEITPNLHGTEVVVAGWVASLGDYGRVKIVKVSDREGGAAVSVYLEYGKTPDHLFKVFAELSREDVVVIKGIVEASKAAADMHNGVEIFPSEIWILNKAK
Consider B1, for which the Kd with hen egg-white lysozyme [1] is 4600 nM.

B2: OBody AM3L15 (designed binder)
chain: VSPKKTHWTAEITPNLHGSEVVVAGWVAHLGDYGRVKIVKVSDREGGAAVPVYLERGKTPDHLFKVFAELSREDVVVIKGIVEAGWPVALDTGVEIFPSEIWILNKAKPLPID
Take B2: the off-rate (koff) with hen egg-white lysozyme [2] came out at 0.0256 s⁻¹.

B3: OBody AM3L09 (designed binder)
chain: VSPKKTHWTAEITPNLHGSEVVVAGWVAHLGDYGRVKIVKVSDREGGAAVPVYLERGKTPDHLFKVFAELSREDVVVIKGIVEATTVTRWDTGVEIFPSEIWILNKAKPLPID
In the test with hen egg-white lysozyme [2], B3 came in with an off-rate constant (koff) of 0.00249 s⁻¹.

B4: OBody AM1L200 (designed binder)
chain: VYPKKTHWTAEITPNLHGTEVVVAGWVAHLGDYGRVMIVKVSDREGGAAVPVYLERGKTPDHLFKVFAELSREDVVVIKGIVEASKQYGSDTGVEIFPSEIWILNKAKPLPID
Take B4: in the test with hen egg-white lysozyme [1], the Kd amounted to 1200 nM.

The record behind these values is PMC3896448 (2014).
